Test [1] addresses T1, IL-2Rα-Fc (Acro Biosystems, catalog #ILA-H5251) (UniProt P01589 22-217, limits assumed).
T1 construct: Bought reagent; Captured on an anti-Fc chip as SPR ligand; also called CD25; not shown: Fc part of the bought fusion
T1 sequence (looked up): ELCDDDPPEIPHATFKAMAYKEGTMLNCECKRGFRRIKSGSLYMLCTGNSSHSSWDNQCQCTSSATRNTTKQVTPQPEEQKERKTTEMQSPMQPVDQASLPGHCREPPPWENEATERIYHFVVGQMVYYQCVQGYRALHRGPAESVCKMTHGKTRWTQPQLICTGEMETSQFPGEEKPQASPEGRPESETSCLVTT
As to the kind of experiment: SPR (Biacore T200), kinetic; receptor-Fc captured on anti-Fc CM5 chip, IL-2 variant as analyte. How it is done:
(§1) Anti-Fc polyclonal antibodies were immobilized onto a CM5 chip (GE Life Sciences) using amine coupling chemistry (from Amine Coupling Kit, GE Life Sciences). The immobilization steps were carried out at a flow rate of 25 μL/minute in 1×HBS-EP+ buffer (GE Life Sciences; 10× Stock diluted before use). The sensor surfaces were activated for 7 minutes with a mixture of NHS (0.05 M) and EDC (0.2 M). The anti-Fc antibodies were injected over all four flow cells at a concentration of 25 μg/mL in 10 mM sodium acetate, pH 4.5, for seven minutes. Ethanolamine (1 M, pH 8.5) was injected for seven minutes to block any remaining activated groups.
(§2) Kinetic binding experiments were performed at 25° C. using 1×HBS-EP+ with 0.05% BSA buffer. IL-2Rα-Fc or IL-2Rβ-Fc (Acro Biosystems, catalog #ILA-H5251, ILB-H5253) was injected over the anti-Fc surface at concentrations of 3-10 μg/mL for 12 seconds at a flow rate of 10 μL/minute on flow cells 2, 3 and 4, followed by a buffer wash for 30 seconds at the same flow rate. Kinetic characterization of conjugated or unconjugated aldesleukin or variants was carried out in a range of concentrations from 1 nM-10 μM and one injection of no antigen. After capturing ligand (IL-2Rα-Fc or IL-2Rβ-Fc) on the anti-Fc surface, the analyte (IL-2 variant) was bound for 60 seconds, followed by a 180 second dissociation phase at a flow rate of 50 μL/min. Between each ligand capture and analyte binding cycle, regeneration was carried out using two injections of 10 mM Glycine pH 1.5 for 30 seconds at 30 μL/minute, followed by a 30 second buffer wash step.
On the technique in general: In SPR one partner is held on a chip, and binding of the other changes the refractive index at the surface.

In test [2] the target is T2, IL-2Rβ-Fc (Acro Biosystems, catalog #ILB-H5253) (UniProt P14784 27-239, limits assumed).
T2 construct: Bought reagent; Captured on an anti-Fc chip as SPR ligand; also called CD122; not shown: Fc part of the bought fusion
T2 sequence (looked up): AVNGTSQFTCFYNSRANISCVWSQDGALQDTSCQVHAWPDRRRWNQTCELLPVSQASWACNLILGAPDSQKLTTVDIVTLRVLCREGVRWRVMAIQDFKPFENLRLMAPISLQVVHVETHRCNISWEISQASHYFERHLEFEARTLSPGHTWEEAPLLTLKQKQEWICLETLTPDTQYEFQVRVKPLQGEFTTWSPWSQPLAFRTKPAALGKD
The description is as above. How it is done: as §1, §2

Test [3] addresses T2, IL-2Rβ-Fc (Acro Biosystems, catalog …). As to the kind of experiment: SPR, kinetic binding to IL-2 receptor.
Test [4] deals with T1, IL-2Rα-Fc (Acro Biosystems, catalog …). As to the kind of experiment: SPR, kinetic binding to IL-2 receptor.
Test [5] shares this target. As to the kind of experiment: SPR, receptor-Fc captured on anti-Fc chip.

For orientation: Kd means a measure of binding affinity in units of concentration. A higher Kd goes with lower affinity.

B1: Ald-6HIS_Y30pAMF (SP9957) conjugated to DBCO 2 x 10 kDa PEG (PEG2) (ligand)
chain: MPTSSSTKKTQLQLEHLLLDLQMILNGINNFKNPKLTRMLTFKFYMPKKATELKHLQCLEEELKPLEEVLNLAQSKNFHLRPRDLISNINVIVLELKGSETTFMCEYADETATIVEFLNRWITFSQSIISTLTGGSHHHHHH
modifications: X31 = pAMF (Y30) conjugated to branched 20 kDa PEG (DBCO 2 x 10 kDa PEG, PEG2)
notes: also called SP9957 PEG2 conjugated
Take B1: the Kd in test [1] turned out to be 300 nM.

B2: Ald-6HIS_R80pAMF (SP9968) conjugated to DBCO 2 x 10 kDa PEG (PEG2) (ligand)
chain: MPTSSSTKKTQLQLEHLLLDLQMILNGINNYKNPKLTRMLTFKFYMPKKATELKHLQCLEEELKPLEEVLNLAQSKNFHLFPRDLISNINVIVLELKGSETTFMCEYADETATIVEFLNRWITFSQSIISTLTGGSHHHHHH
modifications: X81 = pAMF (R80) conjugated to branched 20 kDa PEG (DBCO 2 x 10 kDa PEG, PEG2)
notes: also called SP9968 PEG2 conjugated
Molecule B2 had a Kd in test [1] of 100 nM.

B3: Ald-6HIS_V114pAMF (SP9970), unconjugated (ligand)
chain: MPTSSSTKKTQLQLEHLLLDLQMILNGINNYKNPKLTRMLTFKFYMPKKATELKHLQCLEEELKPLEEVLNLAQSKNFHLRPRDLISNINVIVLELKGSETTFMCEYADETATIFEFLNRWITFSQSIISTLTGGSHHHHHH
modifications: X115 = pAMF (V114 in SEQ ID NO: 2/3 numbering)
notes: also called Aldesleukin-6His V114TAG p-azidomethyl-L-phenylalanine
As for B3, the Kd in test [1] was 50 nM; in test [2] it was 300 nM.

B4: Aldesleukin-6His_S4/Y30/K34/R80 pAMF F41K (SP10688) conjugated to SC547 stump (ligand)
chain: MPTSFSTKKTQLQLEHLLLDLQMILNGINNFKNPFLTRMLTKKFYMPKKATELKHLQCLEEELKPLEEVLNLAQSKNFHLFPRDLISNINVIVLELKGSETTFMCEYADETATIVEFLNRWITFSQSIISTLTGGSHHHHHH
modifications: X5, X31, X35, X81 = pAMF (S4, Y30, K34, R80), each conjugated to SC547 (conjugation stump)
notes: also called SP10728 stump conjugate
Molecule B4 displayed a Kd in test [3] of 2000 nM.

B5: Aldesleukin-6His_S4/K34/F77 pAMF (SP10682) conjugated to SC547 stump (ligand)
chain: MPTSFSTKKTQLQLEHLLLDLQMILNGINNYKNPFLTRMLTFKFYMPKKATELKHLQCLEEELKPLEEVLNLAQSKNFHLRPRDLISNINVIVLELKGSETTFMCEYADETATIVEFLNRWITFSQSIISTLTGGSHHHHHH
modifications: X5, X35, X78 = pAMF (S4, K34, F77), each conjugated to SC547 (conjugation stump)
notes: also called SP10722 stump conjugate
For B5, the Kd in test [4] came to 40 nM; in test [3], 3000 nM.

B6: Aldesleukin-6His_S4/Y30/K34/V114 pAMF (SP10687) conjugated to SC547 stump (ligand)
chain: MPTSFSTKKTQLQLEHLLLDLQMILNGINNFKNPFLTRMLTFKFYMPKKATELKHLQCLEEELKPLEEVLNLAQSKNFHLRPRDLISNINVIVLELKGSETTFMCEYADETATIFEFLNRWITFSQSIISTLTGGSHHHHHH
modifications: X5, X31, X35, X115 = pAMF (S4, Y30, K34, V114), each conjugated to SC547 (conjugation stump)
notes: also called SP10727 stump conjugate
In the case of B6, the Kd in test [4] was 100 nM; in test [3], 1000 nM.

B7: SP10724 (Aldesleukin-6His_S4/Y30/K34 pAMF F41K conjugated to SC579) (ligand)
chain: MPTSFSTKKTQLQLEHLLLDLQMILNGINNFKNPFLTRMLTKKFYMPKKATELKHLQCLEEELKPLEEVLNLAQSKNFHLRPRDLISNINVIVLELKGSETTFMCEYADETATIVEFLNRWITFSQSIISTLTGGSHHHHHH
modifications: X5, X31, X35 = pAMF (S4, Y30, K34), each conjugated to SC579 (releasable 20 kDa mPEG Fmoc-DBCO linker)
notes: also called SP10724 PEG conjugate
With B7, in test [5], the binding result was “no binding”.

B8: Aldesleukin_S4/Y30/K34 pAMF (SP10480) conjugated to SC547 stump (ligand)
chain: MPTSFSTKKTQLQLEHLLLDLQMILNGINNFKNPFLTRMLTFKFYMPKKATELKHLQCLEEELKPLEEVLNLAQSKNFHLRPRDLISNINVIVLELKGSETTFMCEYADETATIVEFLNRWITFSQSIISTLT
modifications: X5, X31, X35 = pAMF (S4, Y30, K34), each conjugated to SC547 (conjugation stump)
notes: also called SP10504 stump conjugate
With B8, the affinity in test [3], expressed as Kd, was 700 nM.

B9: Aldesleukin_S4/K34/V114 pAMF (SP10774) conjugated to SC547 stump (ligand)
chain: MPTSFSTKKTQLQLEHLLLDLQMILNGINNYKNPFLTRMLTFKFYMPKKATELKHLQCLEEELKPLEEVLNLAQSKNFHLRPRDLISNINVIVLELKGSETTFMCEYADETATIFEFLNRWITFSQSIISTLT
modifications: X5, X35, X115 = pAMF (S4, K34, V114), each conjugated to SC547 (conjugation stump)
notes: also called SP10782 stump conjugate
For the molecule B9, the Kd in test [4] came out at 100 nM; in test [3] it was 500 nM.

B10: Aldesleukin_S4/Y30/K34/V114 pAMF (SP10777) conjugated to SC547 stump (ligand)
chain: MPTSFSTKKTQLQLEHLLLDLQMILNGINNFKNPFLTRMLTFKFYMPKKATELKHLQCLEEELKPLEEVLNLAQSKNFHLRPRDLISNINVIVLELKGSETTFMCEYADETATIFEFLNRWITFSQSIISTLT
modifications: X5, X31, X35, X115 = pAMF (S4, Y30, K34, V114), each conjugated to SC547 (conjugation stump)
notes: also called SP10785 stump conjugate
Take B10: the affinity in test [3], expressed as Kd, was 200 nM.

B11: Aldesleukin_S4/Y30/K34/Q73 pAMF (SP10776) conjugated to SC547 stump (ligand)
chain: MPTSFSTKKTQLQLEHLLLDLQMILNGINNFKNPFLTRMLTFKFYMPKKATELKHLQCLEEELKPLEEVLNLAFSKNFHLRPRDLISNINVIVLELKGSETTFMCEYADETATIVEFLNRWITFSQSIISTLT
modifications: X5, X31, X35, X74 = pAMF (S4, Y30, K34, Q73), each conjugated to SC547 (conjugation stump)
notes: also called SP10784 stump conjugate
With B11, the Kd in test [4] was found to be 9 nM; in test [3] it was 300 nM.

These data come from patent US20260256927A1 (Merck Sharp & Dohme, published 2026).
